Data on two proteins can be found in paper PMC5770198.

What is called Km is the substrate concentration at which the rate is half of its maximum.

Substrate in the series: O=c1cc(-c2ccccc2)oc2cc(O)cc(O)c12
As to the kind of experiment: cells, lysate or membranes. Conditions: 1 mM NADPH, 100 mM sodium phosphate pH 7.9, 0.5 mM reduced glutathione, 28°C, chrysin 0.1-5 μM.

B1: SbCYP82D1.1 (Scutellaria baicalensis) (protein)
chain: MELSSVIYGAIALLSLFYCYLHFSKPKKSSLNAPPEAGGARFITGHLHLMDGRSASDKLPHINLGLLADQHGPIFTIRLGVHRAVVVSSWELAKEIFTTHDTAVMARPRLIADDYLSYDGASLGFSPYGPYWREIRKLVTTELLSARRIELQRATRVREITQFTGELYKLWEEKKDGSGRVLVDMKQWLGNLSLNLVSRMVVGKRFYGGDDSETTKRWRGVMREFFQLIGQFIPGDGLPFLRWLDLGGFEKRTRDTAYELDKIIAMWLAEYRKREYSGDDKEQCFMALMLSLVQANPTLQLHYDADTIIKATCQVLISAASDTTTVILIWVISLLLNNADVLKKVQEELDEQVGRERRVEESDISNLPYLQAVVKETMRLYPPAPFAGVRAFSEDCTVGGYHIQKGTFLIVNLWKLHRDPRVWSDDALEFKPQRFFDKKVEVKGQDFELMPFGGGRRMCPGSNLGMHMVHFVLANILQAFDITTGSTVDMTESVGLTNMKATPLDAILTPRLSPTLY
On to B1, for which, under “3 min”, the Michaelis constant (Km) worked out at 0.121 µM.

B2: SbCYP82D2 (Scutellaria baicalensis) (protein)
chain: MLYDNSQYLAMEFSSAIYGAIAFFLFLYYCLLYTTSSKPNTRAYKAPPEAGGARLFSGHLHLMAGGTTGELPHINLANLADKHGPVFTIRLGVKRALVVSSWESAKELFTTCDVAVSSRPRMKAAKLLGYDFAMFGFAPYGAYWRELRKLISVELLSTRRMELQKEVRDSETRESIKELYKLWEERSEGSDSVLVDMKQWFGDLNLNVVLRMVAGKRWIGPETGRWREVLRDFFYLAGMFVPADAFPFLGWLDLGGHEKRMRQTAKELDGIVGGWVAEHREKEYSGEDKPKDFVDVMLSVVQGSSLRADYDADTIIKATCEALIVGGSDTTTVMLIWTLSFLLNNRHVLRKAQEELDKHVGRERRVNQSDINNLVYLQAIVKETLRLYPAGPIGGIREFTQDCQVGGYHVPKGTWLIVNLWKLHRDPKVWSEDCLEFRPERFLNKNIDVRGQDFELIPFGGGRRICPGANFGLHMLHLVLANLLQAFELTTVSDQVIDMTESAGMTNMKATPLNVLVAPRLSPTLY
With B2, the Km (30 min) turned out to be 1.051 µM.
